Measurements published in US20070041992A1.

Biological target: low density lipoprotein receptor-related protein (LRP-1) on rat liver cells (rat) (UniProt G3V928)
Test: cell-based or functional assay

Sequence of low density lipoprotein receptor-related protein (LRP-1) on rat liver cells (rat) (G3V928 20-4545): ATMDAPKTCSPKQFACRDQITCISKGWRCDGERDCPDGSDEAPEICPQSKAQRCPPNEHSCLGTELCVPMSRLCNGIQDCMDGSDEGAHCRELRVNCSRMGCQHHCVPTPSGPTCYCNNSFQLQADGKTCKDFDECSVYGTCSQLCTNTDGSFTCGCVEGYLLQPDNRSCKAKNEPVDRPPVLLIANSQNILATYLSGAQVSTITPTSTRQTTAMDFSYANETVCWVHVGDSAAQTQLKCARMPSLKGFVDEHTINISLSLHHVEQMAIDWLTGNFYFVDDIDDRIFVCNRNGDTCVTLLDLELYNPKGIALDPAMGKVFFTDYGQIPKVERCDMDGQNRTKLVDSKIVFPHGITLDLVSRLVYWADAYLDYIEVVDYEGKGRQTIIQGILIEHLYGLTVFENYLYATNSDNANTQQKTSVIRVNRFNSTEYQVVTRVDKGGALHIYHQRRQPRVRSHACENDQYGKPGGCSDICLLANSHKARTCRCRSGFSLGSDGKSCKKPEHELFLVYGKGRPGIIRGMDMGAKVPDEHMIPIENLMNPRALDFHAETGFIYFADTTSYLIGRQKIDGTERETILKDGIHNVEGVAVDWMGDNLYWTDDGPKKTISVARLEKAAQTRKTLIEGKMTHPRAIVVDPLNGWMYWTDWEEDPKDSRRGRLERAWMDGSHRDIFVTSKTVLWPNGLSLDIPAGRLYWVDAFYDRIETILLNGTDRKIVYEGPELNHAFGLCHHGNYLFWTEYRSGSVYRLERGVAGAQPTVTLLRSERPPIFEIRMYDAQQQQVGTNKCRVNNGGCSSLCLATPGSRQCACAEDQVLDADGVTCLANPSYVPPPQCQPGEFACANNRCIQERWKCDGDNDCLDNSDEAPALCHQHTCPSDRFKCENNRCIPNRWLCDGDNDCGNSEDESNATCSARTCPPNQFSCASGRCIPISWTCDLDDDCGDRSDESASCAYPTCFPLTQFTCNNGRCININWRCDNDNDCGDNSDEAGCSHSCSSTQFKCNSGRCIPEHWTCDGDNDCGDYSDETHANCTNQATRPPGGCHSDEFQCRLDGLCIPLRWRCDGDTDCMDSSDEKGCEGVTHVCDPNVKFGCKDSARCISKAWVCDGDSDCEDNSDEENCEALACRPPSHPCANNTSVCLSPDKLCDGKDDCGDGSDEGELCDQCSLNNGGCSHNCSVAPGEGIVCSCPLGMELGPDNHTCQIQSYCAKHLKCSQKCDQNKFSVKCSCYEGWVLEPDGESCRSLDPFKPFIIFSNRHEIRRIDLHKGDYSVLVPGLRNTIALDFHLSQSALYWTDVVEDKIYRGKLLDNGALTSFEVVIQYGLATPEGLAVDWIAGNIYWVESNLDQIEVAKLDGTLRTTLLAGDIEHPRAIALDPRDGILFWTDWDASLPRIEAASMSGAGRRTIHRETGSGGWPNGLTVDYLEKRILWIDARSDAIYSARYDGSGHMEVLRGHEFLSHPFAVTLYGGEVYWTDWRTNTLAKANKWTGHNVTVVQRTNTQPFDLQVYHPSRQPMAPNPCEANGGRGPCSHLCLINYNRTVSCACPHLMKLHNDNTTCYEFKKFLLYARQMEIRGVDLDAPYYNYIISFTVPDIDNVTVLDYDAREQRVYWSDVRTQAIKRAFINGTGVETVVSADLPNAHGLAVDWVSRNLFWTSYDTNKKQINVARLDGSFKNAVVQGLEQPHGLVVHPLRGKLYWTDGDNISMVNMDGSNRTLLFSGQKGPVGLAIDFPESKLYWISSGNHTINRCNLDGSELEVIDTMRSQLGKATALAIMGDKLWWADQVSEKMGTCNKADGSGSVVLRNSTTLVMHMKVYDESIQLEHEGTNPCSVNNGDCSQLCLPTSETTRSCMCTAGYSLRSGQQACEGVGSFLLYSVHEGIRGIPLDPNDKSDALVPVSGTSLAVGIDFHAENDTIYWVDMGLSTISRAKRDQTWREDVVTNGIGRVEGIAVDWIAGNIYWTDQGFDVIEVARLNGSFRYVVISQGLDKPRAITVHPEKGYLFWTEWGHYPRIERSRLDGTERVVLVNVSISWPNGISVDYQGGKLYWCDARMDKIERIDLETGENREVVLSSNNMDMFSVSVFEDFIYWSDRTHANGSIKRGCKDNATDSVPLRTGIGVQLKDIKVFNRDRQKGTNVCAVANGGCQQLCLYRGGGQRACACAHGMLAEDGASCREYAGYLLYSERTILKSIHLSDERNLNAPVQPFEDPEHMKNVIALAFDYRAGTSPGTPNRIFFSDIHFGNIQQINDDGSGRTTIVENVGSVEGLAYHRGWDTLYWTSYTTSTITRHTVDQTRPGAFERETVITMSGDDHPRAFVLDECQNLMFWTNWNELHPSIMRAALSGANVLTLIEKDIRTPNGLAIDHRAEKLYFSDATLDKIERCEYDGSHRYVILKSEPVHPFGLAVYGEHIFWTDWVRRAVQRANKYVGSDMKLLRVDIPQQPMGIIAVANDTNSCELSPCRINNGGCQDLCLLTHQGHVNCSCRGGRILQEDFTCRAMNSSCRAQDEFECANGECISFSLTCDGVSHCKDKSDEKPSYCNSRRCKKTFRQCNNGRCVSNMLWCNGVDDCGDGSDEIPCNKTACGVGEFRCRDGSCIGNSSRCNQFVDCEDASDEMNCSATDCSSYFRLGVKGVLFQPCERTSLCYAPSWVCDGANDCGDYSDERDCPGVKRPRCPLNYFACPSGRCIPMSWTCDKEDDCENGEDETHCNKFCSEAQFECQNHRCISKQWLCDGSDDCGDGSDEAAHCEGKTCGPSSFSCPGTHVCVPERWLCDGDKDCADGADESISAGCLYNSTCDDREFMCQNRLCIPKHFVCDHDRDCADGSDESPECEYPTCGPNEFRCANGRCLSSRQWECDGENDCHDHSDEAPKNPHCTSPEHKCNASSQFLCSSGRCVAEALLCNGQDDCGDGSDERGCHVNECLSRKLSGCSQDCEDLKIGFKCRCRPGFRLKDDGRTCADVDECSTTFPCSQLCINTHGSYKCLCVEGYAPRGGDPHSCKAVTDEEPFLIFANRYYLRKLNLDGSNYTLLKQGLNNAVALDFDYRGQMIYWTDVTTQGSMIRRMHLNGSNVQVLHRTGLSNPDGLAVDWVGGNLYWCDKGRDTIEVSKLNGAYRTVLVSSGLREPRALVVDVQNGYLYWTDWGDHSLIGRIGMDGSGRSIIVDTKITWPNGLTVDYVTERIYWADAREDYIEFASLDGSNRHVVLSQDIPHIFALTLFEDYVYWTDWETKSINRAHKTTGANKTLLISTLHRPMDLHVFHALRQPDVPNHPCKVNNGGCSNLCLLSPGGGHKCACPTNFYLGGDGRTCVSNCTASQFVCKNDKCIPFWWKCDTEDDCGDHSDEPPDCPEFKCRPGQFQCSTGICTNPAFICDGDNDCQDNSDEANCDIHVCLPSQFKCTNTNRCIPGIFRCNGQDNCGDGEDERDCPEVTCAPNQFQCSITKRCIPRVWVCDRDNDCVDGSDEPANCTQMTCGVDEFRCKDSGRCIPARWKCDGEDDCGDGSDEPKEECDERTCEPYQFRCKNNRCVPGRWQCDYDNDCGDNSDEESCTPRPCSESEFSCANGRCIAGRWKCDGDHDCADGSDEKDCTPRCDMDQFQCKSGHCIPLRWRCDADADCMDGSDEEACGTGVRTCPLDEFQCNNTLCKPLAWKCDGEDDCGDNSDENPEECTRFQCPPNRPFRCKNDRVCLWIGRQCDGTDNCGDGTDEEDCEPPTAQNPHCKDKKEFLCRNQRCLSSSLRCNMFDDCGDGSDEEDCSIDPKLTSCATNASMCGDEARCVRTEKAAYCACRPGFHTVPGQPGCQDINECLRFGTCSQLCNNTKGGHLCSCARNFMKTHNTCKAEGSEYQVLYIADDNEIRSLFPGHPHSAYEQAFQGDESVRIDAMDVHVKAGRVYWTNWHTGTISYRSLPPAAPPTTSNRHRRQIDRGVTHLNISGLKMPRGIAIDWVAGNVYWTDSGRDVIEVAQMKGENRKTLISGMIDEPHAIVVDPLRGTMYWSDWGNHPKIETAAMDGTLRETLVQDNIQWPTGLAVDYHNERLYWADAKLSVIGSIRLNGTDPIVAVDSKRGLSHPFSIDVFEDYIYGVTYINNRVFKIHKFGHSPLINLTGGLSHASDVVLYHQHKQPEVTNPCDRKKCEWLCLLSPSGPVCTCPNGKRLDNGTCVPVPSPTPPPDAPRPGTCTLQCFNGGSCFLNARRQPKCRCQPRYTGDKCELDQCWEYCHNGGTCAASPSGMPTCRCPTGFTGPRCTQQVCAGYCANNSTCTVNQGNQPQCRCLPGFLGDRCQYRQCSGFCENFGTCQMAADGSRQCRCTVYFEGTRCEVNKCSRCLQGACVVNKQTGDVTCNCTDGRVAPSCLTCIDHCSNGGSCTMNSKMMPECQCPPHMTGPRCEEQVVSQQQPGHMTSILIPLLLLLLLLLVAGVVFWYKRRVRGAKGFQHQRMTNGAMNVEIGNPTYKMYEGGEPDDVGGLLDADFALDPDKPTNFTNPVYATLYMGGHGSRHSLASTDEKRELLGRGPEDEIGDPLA

P. falciparum CS protein CS27IVC-His6 (AA 27-123[NANPNVDP]3[NANP]21300-411) (from UniProt P05691 27-123) (ligand)
elevation of the cAMP level in Kupffer cells: 3 fold
